Like-named read-outs stand apart in the source and are kept apart here.
How the values were obtained:
HLA-B*0702 (human) = test: competition with radiolabeled standard peptide for purified HLA, gel filtration
HLA-B*5101 (human) = test: as above; settings: remark: other sources report otherwise
HLA-B*5401 (human) = test: as above; settings: remark: other sources report otherwise
HLA-A*1101 (human) [1] = target: HLA-A*1101 (human)
[2] = target: HLA-DR4w4 (DRB1*0401) (human); test: competition with standard peptide for purified HLA-DR, relative to standard
[3] = target: HLA-DR5w11 (DRB1*1101) (human); test: as above
[4] = target: HLA-DR7 (DRB1*0701) (human); test: as above
[5] = target: HLA-DR1 (DRB1*0101) (human); test: as above
[6] = target: HLA-DRw53 (DRB4*0101) (human); test: as above
[7] = target: HLA-DR3 (DRB1*0301) (human); test: HLA class II peptide binding assay, ratio to standard peptide; settings: remark: other sources report otherwise
[8] = target: HLA-DR5w11 (DRB1*1101) (human); test: as above; settings: remark: other sources report otherwise
[9] = target: HLA-DR2w2β1 (DRB1*1501) (human); test: as above
[10] = target: HLA-DR7 (DRB1*0701) (human); test: as above; settings: remark: other sources report otherwise
[11] = target: HLA-DR4w15 (DRB1*0405) (human); test: as above; settings: remark: other sources report otherwise
[12] = target: HLA-DR6w19 (DRB1*1302) (human); test: as above; settings: remark: other sources report otherwise
[13] = target: HLA-DR4w4 (DRB1*0401) (human); test: as above; settings: remark: other sources report otherwise
[14] = target: HLA-DR1 (DRB1*0101) (human); test: as above; settings: remark: other sources report otherwise
[15] = target: HLA-DR7 (DRB1*0701) (human)
[16] = target: HLA-DR1 (DRB1*0101) (human)
[17] = target: HLA-DR2w2β2 (DRB5*0101) (human)
[18] = target: HLA-DR5w11 (DRB1*1101) (human)
[19] = target: HLA-DR6w19 (DRB1*1302) (human)
[20] = target: HLA-DR2w2β1 (DRB1*1501) (human)
[21] = target: HLA-B*0701 (as printed in the head of Table XXII) (human); test: competitive inhibition of radiolabeled standard peptide binding to purified HLA
HLA-A*0201 (human) [22] = target: HLA-A*0201 (human)
HLA-A*0201 (human) [23] = test: competitive inhibition of radiolabeled standard peptide binding to purified HLA
HLA-A*1101 (human) [24] = target: HLA-A*1101 (human); remark: listed apart in the source
[25] = remark: other sources report otherwise

VPNLQSLTNL (modifications not checked) [HBV POL 398 peptide …] showed a binding affinity ratio (IC50 of standard peptide / IC50 of test peptide) (HLA-B*0702 (human)) of 0.0006.

Binder WPKFAVPNL (modifications not checked) [HBV POL 393 peptide …] has a binding affinity ratio (IC50 of standard peptide / IC50 of test peptide) (HLA-B*0702 (human); [25]) of 0.0054, a binding affinity ratio (IC50 of standard peptide / IC50 of test peptide) (HLA-B*5101 (human)) of 0.0016 and a binding affinity ratio (IC50 of standard peptide / IC50 of test peptide) (HLA-B*5401 (human)) of 0.0015.

Work on DSWWTSLNF (modifications not checked) [HBV ENV 207 … (peptide 20.0120)] yielded a binding affinity ratio (HLA-A*0301 (human)) of 0.0006.

In the case of HLNPNKTKR (modifications not checked) [HBV POL 569 peptide …], the binding affinity ratio (IC50 of standard peptide / IC50 of test peptide) (HLA-A*0301 (human)) is reported as 0.0025.

Work on ILRGTSFVY (modifications not checked) [HBV POL 771 peptide …] yielded a binding affinity ratio (IC50 of standard peptide / IC50 of test peptide) (HLA-A*0301 (human); [25]) of 0.044.

For KAGILYKR (modifications not checked) [HBV POL 153 peptide KAGILYKR], the binding affinity ratio (IC50 of standard peptide / IC50 of test peptide) (HLA-A*1101 (human) [1]) was -0.0002.

LDTASALYR (modifications not checked) [HBV NUC 60 peptide …] was tested, and the binding affinity ratio (IC50 of standard peptide / IC50 of test peptide) (HLA-A*1101 (human) [1]) was -0.0002.

With LLDTASALYR (modifications not checked) [HBV NUC 30 peptide …] the binding affinity ratio (IC50 of standard peptide / IC50 of test peptide) (HLA-A*0301 (human)) was 0.005.

For LLVLQAGFF (modifications not checked) [HBV ENV 175 peptide …], the binding affinity ratio (IC50 of standard peptide / IC50 of test peptide) (HLA-A*0301 (human)) was 0.0006.

With LSFLPSDFF (modifications not checked) [HBV NUC 45 peptide …] the binding affinity ratio (IC50 of standard peptide / IC50 of test peptide) (HLA-A*0301 (human)) was 0.0006.

With AEDLNLGNLNVSIPW (modifications not checked) the binding affinity ratio (IC50 of standard peptide / IC50 of test peptide) [2] was -0.0007, the binding affinity ratio (IC50 of standard peptide / IC50 of test peptide) [3] was -0.0002 and the binding affinity ratio (IC50 of standard peptide / IC50 of test peptide) [4] was -0.0003. For the same binder, the binding affinity ratio (IC50 of standard peptide / IC50 of test peptide) [5] was 0.0001.

ASKLCLGWLWGMDID (modifications not checked) gave a binding affinity ratio (IC50 of standard peptide / IC50 of test peptide) [3] of -0.0002, a binding affinity ratio (IC50 of standard peptide / IC50 of test peptide) [6] of 0.001 and a binding affinity ratio (IC50 of standard peptide / IC50 of test peptide) [5] of 0.0002.

DLNLGNLNVSIPWTH (modifications not checked) showed a binding affinity ratio (IC50 of standard peptide / IC50 of test peptide) [4] of 0.001.

IVGLLGFAAPFTQCG (modifications not checked) gave a binding affinity ratio (IC50 of standard peptide / IC50 of test peptide) [2] of -0.0007, a binding affinity ratio (IC50 of standard peptide / IC50 of test peptide) [3] of -0.0002 and a binding affinity ratio (IC50 of standard peptide / IC50 of test peptide) [4] of 0.0009. It also gave a binding affinity ratio (IC50 of standard peptide / IC50 of test peptide) [5] of 0.02.

LAQFTSAICSVVRRA (modifications not checked) was tested, and the binding affinity ratio (IC50 of standard peptide / IC50 of test peptide) [7] was -0.0009, the binding affinity ratio (IC50 of standard peptide / IC50 of test peptide) [8] was 0.0076 and the binding affinity ratio (IC50 of standard peptide / IC50 of test peptide) [9] was 0.0065. For the same binder, the binding affinity ratio (IC50 of standard peptide / IC50 of test peptide) [10] was 0.028, the binding affinity ratio (IC50 of standard peptide / IC50 of test peptide) [11] was 0.028 and the binding affinity ratio (IC50 of standard peptide / IC50 of test peptide) [12] was 0.001.

Binder NAPILSTLPETTVVR (modifications not checked) has a binding affinity ratio (IC50 of standard peptide / IC50 of test peptide) [13] of -0.0007, a binding affinity ratio (IC50 of standard peptide / IC50 of test peptide) [8] of -0.0002 and a binding affinity ratio (IC50 of standard peptide / IC50 of test peptide) [10] of 0.0005. For the same binder, the binding affinity ratio (IC50 of standard peptide / IC50 of test peptide) [14] was 0.0009.

Work on PLPIHTAELLAACFA (modifications not checked) yielded a binding affinity ratio (IC50 of standard peptide / IC50 of test peptide) [10] of -0.0003 and a binding affinity ratio (IC50 of standard peptide / IC50 of test peptide) [14] of 0.0046.

In the case of RDLLDTASALYREAL (modifications not checked), the binding affinity ratio (IC50 of standard peptide / IC50 of test peptide) [15, 25] is reported as 0.077 and the binding affinity ratio (IC50 of standard peptide / IC50 of test peptide) [16, 25] is reported as 0.0001.

Binder VGLLGFAAPFTQCGY (modifications not checked) has a binding affinity ratio (IC50 of standard peptide / IC50 of test peptide) [17] of 0.0008, a binding affinity ratio (IC50 of standard peptide / IC50 of test peptide) [18] of -0.0004 and a binding affinity ratio (IC50 of standard peptide / IC50 of test peptide) [19] of -0.0001.

For VGNFTGLYSSTVPVF (modifications not checked), the binding affinity ratio (IC50 of standard peptide / IC50 of test peptide) [20] was 0.01 and the binding affinity ratio (IC50 of standard peptide / IC50 of test peptide) [15, 25] was 0.56.

Binder WPKFAVPNLQSLTNL (modifications not checked) has a binding affinity ratio (IC50 of standard peptide / IC50 of test peptide) [18] of 0.0002, a binding affinity ratio (IC50 of standard peptide / IC50 of test peptide) [15] of 0.0008 and a binding affinity ratio (IC50 of standard peptide / IC50 of test peptide) [16] of 0.0007.

MPKAGLLII (modifications not checked) [MAGE3 196] gave an IC50 [21] of 940 nM.

LIFLLVLL (modifications not checked) [HBV ENV 254 peptide LIFLLVLL] gave a binding affinity ratio (relative to standard peptide) (HLA-A*0201 (human) [22]) of 0.0025.

Work on LLDYQGML (modifications not checked) [HBV ENV 260 peptide LLDYQGML] yielded a binding affinity ratio (relative to standard peptide) (HLA-A*0201 (human) [22]) of 0.0004.

Binder LLGCAANWI (modifications not checked) [HBV POL 752 peptide …] has a binding affinity ratio (relative to standard peptide) (HLA-A*0201 (human) [22]) of 0.0011.

For QLLWFHISCL (modifications not checked) [HBV NUC 99 peptide … (peptide 1142.03)], the binding affinity ratio (IC50 of standard peptide / IC50 of test peptide) (HLA-A*0201 (human) [22]) was 0.006.

For RVTGGVFLV (modifications not checked) [HBV POL 357 peptide …], the binding affinity ratio (IC50 of standard peptide / IC50 of test peptide) (HLA-A*0201 (human) [22]; [25]) was 0.0041.

SLNFMGYVI (modifications not checked) [HBV POL 581 peptide …] gave a binding affinity ratio (IC50 of standard peptide / IC50 of test peptide) (HLA-A*0201 (human) [22]) of 0.0038.

With STLPETTVV (modifications not checked) [HBV NUC 141 peptide …] the binding affinity ratio (IC50 of standard peptide / IC50 of test peptide) (HLA-A*0201 (human) [22]) was 0.0019.

Work on SVRFSWLSLL (modifications not checked) [HBV ENV 330 peptide …] yielded a binding affinity ratio (IC50 of standard peptide / IC50 of test peptide) (HLA-A*0201 (human) [22]) of 0.0004.

Binder YVPSALNPA (modifications not checked) [HBV POL 768 peptide …] has a binding affinity ratio (IC50 of standard peptide / IC50 of test peptide) (HLA-A*0201 (human) [23]) of 0.0039.

With TTVVRRRGR (modifications not checked) [HBV NUC 175 peptide …] the binding affinity ratio (IC50 of standard peptide / IC50 of test peptide) (HLA-A*1101 (human) [24]) was 0.0005, the binding affinity ratio (IC50 of standard peptide / IC50 of test peptide) (HLA-A*3101 (human)) was 0.25 and the binding affinity ratio (IC50 of standard peptide / IC50 of test peptide) (HLA-A*3301 (human)) was 0.14. For the same binder, the binding affinity ratio (IC50 of standard peptide / IC50 of test peptide) (HLA-A*6801 (human)) was 0.0095.

Work on VLGGCRHK (modifications not checked) [HBV X 133 peptide VLGGCRHK] yielded a binding affinity ratio (IC50 of standard peptide / IC50 of test peptide) (HLA-A*3101 (human)) of -0.0005 and a binding affinity ratio (IC50 of standard peptide / IC50 of test peptide) (HLA-A*3301 (human)) of -0.0009.

Source: patent publication US7611713
